According to patent US20220160891A1 (Johns Hopkins, published 2022):
Where two headings read alike, the source gives them in different places.

T1: yeast surface-displayed mouse IL-2 (residues 1-149) (mouse, UniProt P04351 21-169)
T1 construct: range 1-149; also called mIL-2; not shown: yeast display anchor encoded by the pCT302 vector
T1 sequence (looked up): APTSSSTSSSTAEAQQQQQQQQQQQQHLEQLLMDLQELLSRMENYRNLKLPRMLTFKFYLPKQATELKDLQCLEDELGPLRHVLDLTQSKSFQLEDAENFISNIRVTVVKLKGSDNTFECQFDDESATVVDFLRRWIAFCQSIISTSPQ


Assays:
[1] = molecular target: biotinylated human IL-2Ralpha extracellular domain (residues 1-214) (human) (UniProt P01589); test: bio-layer interferometry equilibrium titration on immobilized hIL-2Rα, response MW normalized
[2] = molecular target: T2, yeast surface-displayed human IL-2 (residues 1-133) (human, UniProt P60568 21-153); test: yeast surface display titration of soluble antibody, flow cytometry; apparent bivalent affinity
T2 construct: also called hIL-2; not shown: yeast display anchor encoded by the pCT302 vector
Description: (§1) Yeast surface binding studies. […] Cells were then washed and stained with a 1:200 dilution of Alexa647-conjugated streptavidin (Thermo) in PBSA for 15 minutes at 4° C. After a final wash, cells were analyzed for antibody binding using a CytoFLEX flow cytometer (Beckman Coulter). Background-subtracted and normalized binding curves were fitted to a first-order binding model and equilibrium dissociation constant (KD) values were determined using GraphPad Prism.
(§2) A rapid small-scale HEK 293F cell transfection assay was developed to optimize immunocytokine expression. […] After a 3-day incubation, secreted protein was captured from the supernatant with protein G resin, eluted with 0.1 M glycine pH 2.0, and analyzed via SDS-PAGE. […] Immunocytokine expression was scaled up in HEK 293F cells and the secreted protein was purified via protein G affinity chromatography followed by size-exclusion chromatography.

[3] = molecular target: T1, yeast surface-displayed mouse IL-2 …; test: yeast surface titration on mIL-2-displaying yeast, flow cytometry, normalized MFI
[4] = molecular target: T2, yeast surface-displayed human IL-2 …; test: yeast surface titration on hIL-2-displaying yeast, flow cytometry, normalized MFI
Description: as §1, §2

[5] = molecular target: T2, yeast surface-displayed human IL-2 …; test: as above; remark: listed apart in the source
Description: as §1

[6] = molecular target: T3, biotinylated human IL-2 immobilized on streptavidin-coated tips (human, UniProt P60568 21-153, biotinylated (site not stated)); test: bio-layer interferometry equilibrium titration on immobilized hIL-2, response MW normalized
T3 construct: also called biotinylated hIL-2; immobilized hIL-2; not shown: tags and biotinylation site of the biotinylated hIL-2 construct are not described (the BAP tag is described only for hIL)
Description: (§3) Bio-layer interferometry binding studies. […] Less than 5 signal units (nm) of receptor was immobilized to minimize mass transfer effects. […] An irrelevant protein was included in a reference well to subtract non-specific binding. Surface regeneration for all interactions was conducted using a 15 second exposure to 0.1 M glycine pH 3.0. Experiments were carried out in PBSA (phosphate-buffered saline, pH 7.3 plus 0.1% bovine serum albumin (BSA, Thermo Fisher Scientific)) at 25° C. Data was visualized and processed using the Octet® Data Analysis software version 7.1 (Molecular Devices). Equilibrium titration curve fitting and KD value determination was implemented using GraphPad Prism, assuming all binding interactions to be first order.

[7] = molecular target: T3, biotinylated human IL-2 immobilized on …; test: as above; remark: listed apart in the source
Description: as §3

T2 sequence (P60568 21-153): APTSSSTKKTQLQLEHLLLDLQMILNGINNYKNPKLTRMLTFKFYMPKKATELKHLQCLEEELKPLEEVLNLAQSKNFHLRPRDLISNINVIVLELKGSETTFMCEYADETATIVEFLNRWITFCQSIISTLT
T3 sequence (P60568 21-153): as above

Row | Molecule | EC50 (read off the curve) [1] | Kd [2] | binding result [3] | Kd [4] | EC50 (read off the curve) [5] | EC50 (read off the curve) [6] | EC50 (read off the curve) [7]
1 | human IL-2 cytokine (residues 1-133), soluble, C-terminal hexahistidine tag (from UniProt P60568 21-153) (ligand) | 5000 pM |  |  |  |  |  | 
2 | hIL-2/F5111 complex (from UniProt P60568 21-153) | 8000 pM |  |  |  |  |  | 
3 | recombinant F5111 antibody (human IgG1 lambda) (antibody, V domains shown, also called F5111 Ab; monoclonal antibody F5111) VH: QLQLQESGPGLVKPSQTLSLTCTVSGGSISSGGYYWSWIRQHPGKGLEWIGYIYYSGSTYYNPSLKSRVTISVDTSKNQFSLKLSSVTAADTAVYYCARTPTVTGDWFDPWGRGTLVTVSS VL: NFMLTQPHSVSESPGKTVTISCTRSSGSIASNYVQWYQQRPGSSPTTVIYEDNQRPSGVPDRFSGSIDSSSNSASLTISGLKTEDEADYYCQSYDSSNVVFGGGTKLTVLG |  | 430 pM | no binding (tested: about 1e-7 M) | 420 pM | ~80 pM | ~3000 pM | ~600 pM
